Measurements taken from patent US20220144956A1 (published 2022).

B1: XENP35401 anti-CD5 clone 5D7 Bivalent (antibody, V domains shown)
VH: EVQLVESGGGVVQPGRSLRLSCTFSGFSLSTSGMGVGWIRQAPGKGLEWVAHIWWDDDVYYNPSLKSRLTITKDASTDTVYMELSSLRSEDTAVYYCVRRRATGTGFDYWGQGTLVTVSS
VL: NIVMTQSPSSLSASVGDRVTITCQASQDVGTAVAWYQQKPDQSPKLLIYWTSTRHTGVPDRFTGSGSGTDFTLTISSLQPEDIATYFCHQYNSYNTFGSGTKLEIKR
B2: Human (receptor)
chain: RLSWYDPDFQARLTRSNSKCQGQLEVYLKDGWHMVCSQSWGRSSKQWEDPSQASKVCQRLNCGVPLSLGPFLVTYTPQSSIICYGQLGSFSNCSHSRNDMCHSLGLTCLEPQKTTPPTTRPPPTTTPEPTAPPRLQLVAQSGGQHCAGVVEFYSGSLGGTISYEAQDKTQDLENFLCNNLQCGSFLKHLPETEAGRAQDPGEPREHQPLPIQWKIQNSSCTSLEHCFRKIKPQKSGRVLALLCSGFQPKVQSRLVGGSSICEGTVEVRQGAQWAALCDSSSARSSLRWEEVCREQQCGSVNSYRVLDAGDPTSRGLFCPHQKLSQCHELWERNSYCKKVFVTCQDPNP

Tests used:
[1] = target: Unstimulated Cyno CD8 T cells (cynomolgus monkey); test: FACS cell binding; CD8 T cells; avid
[2] = target: Unstimulated Cyno CD4 T cells (cynomolgus monkey); test: FACS cell binding; CD4 T cells; avid
[3] = target: Unstimulated Cyno CD3+ cells (cynomolgus monkey); test: FACS cell binding; CD3+ cells; avid
[4] = target: αCD5 (Clone 8) x αTGFßRII; test: Octet
[5] = target: αCD5 (Clone 3) x αTGFßRII; test: Octet
[6] = target: αCD5 (Clone 10) x αTGFßRII; test: Octet
[7] = target: αCD5 (Clone 7) x αTGFßRII; test: Octet
[8] = target: αCD5 (Clone 11) x αTGFßRII; test: Octet
[9] = target: αCD5 (Clone 5) x αTGFßRII; test: Octet
[10] = target: αCD5 (Clone 6) x αTGFßRII; test: Octet
[11] = target: αCD5 (Clone 1) x αTGFßRII; test: Octet
[12] = target: αCD5 (Clone 9) x αTGFßRII; test: Octet
[13] = target: αCD5 (Clone 4) x αTGFßRII; test: Octet

| Binder | EC50 [1] | EC50 [2] | EC50 [3] | Kd [4] | Kd [5] | Kd [6] | Kd [7] | Kd [8] | Kd [9] | Kd [10] | Kd [11] | Kd [12] | Kd [13] |
| --- | --- | --- | --- | --- | --- | --- | --- | --- | --- | --- | --- | --- | --- |
| B1 | 0.415 µg/mL | 0.584 µg/mL | 0.508 µg/mL |  |  |  |  |  |  |  |  |  |  |
| B2 |  |  |  | 8.72 nM | 1.53 nM | 1.24 nM | 2.05 nM | 18.6 nM | 12.9 nM | 11.1 nM | 7.91 nM | 2.99 nM | 7.03 nM |
